Measurements published in patent US20220380455A1 (Alector, published 2022).
Values joined by “and” are separate entries in the source; they are usually repeats but may differ in a detail not shown here. Equal values may be shown once.

T1: MS4A6A ECL1 peptide (human)
T1 construct: the description elsewhere gives ECL1 as 68-84; Human and cyno ECL1 are said to be identical
T1 peptide: SASFSPNFTQVTSTLLNS

T2: MS4A6A ECL2 peptide (human)
T2 construct: also called MS4A6A ECL-2 peptides
T2 peptide: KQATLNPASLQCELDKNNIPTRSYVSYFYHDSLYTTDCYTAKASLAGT

T3: cynomolgus (cyno) MS4A6A (cynomolgus, UniProt Q9H2W1 1-246 (human entry))
T3 construct: Full-length protein expressed in transfected HEK293, U937 or K562 cells (flow cytometry)
T3 chain: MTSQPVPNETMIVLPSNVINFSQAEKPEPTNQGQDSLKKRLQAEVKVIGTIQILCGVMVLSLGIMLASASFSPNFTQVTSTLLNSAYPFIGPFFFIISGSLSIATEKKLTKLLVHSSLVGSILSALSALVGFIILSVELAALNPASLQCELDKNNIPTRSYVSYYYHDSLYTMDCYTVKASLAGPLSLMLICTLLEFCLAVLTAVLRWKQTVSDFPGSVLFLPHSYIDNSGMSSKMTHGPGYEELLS


Key:
MS4A6A ECL1 peptide = biological target: T1, MS4A6A ECL1 peptide; assay: peptide ELISA, hybridoma supernatant
Method: Anti-MS4A6A hybridoma supernatants were tested for binding to MS4A6A peptides derived from ECL1 (amino acid residues 68-85 of human MS4A6A of SEQ ID NO:1) and ECL2 (amino acid residues 138-185 of human MS4A6A of SEQ ID NO:1) sequences, using an enzyme-linked immunosorbent assay (ELISA). Briefly, 96-well polystyrene plates were coated with 1-10 μg/mL of synthetic free or BSA-conjugated peptides in coating buffer (0.05M carbonate buffer, pH9.6, Millipore Sigma C3041) overnight at 4° C. Coated plates were then blocked with ELISA diluent (PBS+0.5% BSA+0.05% Tween20) for 1-hour, washed 3×300 μL in PBST (PBS+0.05% Tween20, Thermo 28352), and then the antibodies were added at various dilutions (100-1000×) in ELISA diluent. After 30 mins incubation (room temperature, with shaking), the plates were washed 3×300 μl in PBST. A secondary anti-mouse HRP antibody (Jackson Immunoresearch CAT #115-035-003) was added at a 1:1000 dilution in ELISA diluent (50 μL/well) and incubated for 30 minutes at room temperature with shaking. After a final set of washes (3×300 μl in PBST), 50 μL of TMB substrate (BioFx TMBW-1000-01) was added and the reaction was then quenched after 5-10 mins with 50 μL of stop solution (BioFx BSTP-1000-01). The quenched reaction wells were detected for absorbance at […] with a BioTek Synergy Microplate Reader using GENS 2.04 software.

MS4A6A ECL2 peptide = biological target: T2, MS4A6A ECL2 peptide; assay: array SPR (Carterra MX-96), antibody captured on anti-mouse IgG-Fc, ECL2 peptide injected
Method: Binding kinetic characterization of the purified antibodies to MS4A6A ECL1 and ECL2 peptides was performed by Carterra (South San Francisco, Calif.) using a proprietary array Surface Plasmon Resonance (SPR) instrument (MX-96) as follows. Antibodies were printed onto a CMD5OOD chip (Xantec #SPMX CMD500D lot #SC CMD500D0117.a Exp. 31.12.18) using the Continuous Flow Microspotter (CFM). First, the chip was activated with 100 mM MES pH 5.5, 100 μL EDC (133 mM final), 100 μL of S-NHS (33.3 mM final), for 7 minutes. A lawn of anti-mouse IgG-Fc (Jackson ImmunoResearch CAT #115-005-071 lot#130410) was injected for 15 minutes to establish a surface density of 10000-12000 RU, after which the chip surface was deactivated with 1 M ethanolamine at pH 8.5 for 10 minutes. Anti-MS4A6A antibodies in question, in the form of hybridoma supernatants diluted 2:1 with HBS-EP+buffer (Teknova CAT #H8022), were then printed as duplicates with a 20 minute and a 5 minutes print from the same sample solution. Control antibodies were diluted to 20 μ/ml for printing.
To perform kinetic analysis, the peptides in question were prepared in HBS-EP+buffer with lmg/ml BSA at final assay concentrations of 2000 nM, 400 nM, 80 nM, 16 nmM, and 3.2 nM. These were then injected on the chip for five minutes, followed by a seven-minute dissociation period at 8 uL per second in a non-regenerative kinetic series. Duplicate measurements for each anti-MS4A6A antibody were taken to ensure reproducibility.
Kₐ (association rate constant; Kₒₙ), Kd (dissociation rate constant; Koff) and KD (equilibrium constant) to MS4A6A ECL-2 peptides were calculated for each of the 23 anti-MS4A6A antibodies tested, the results of which are shown below in Table 5 (clones that bound too weakly to determine these values are denoted as N/A in Table 5).

cynomolgus (cyno) MS4A6A [1] = biological target: T3, cynomolgus (cyno) MS4A6A; assay: flow cytometry, hybridoma supernatant, HEK293 transfected with cyno MS4A6A over parental HEK293; Screen 1
Method: (§1) Positive clones were expanded and then rescreened for specificity against HEK293 cells overexpressing cyno MS4A6A and parental HEK293 cells. Briefly, previously prepared, cryopreserved transiently-transfected cells were labeled with LIVE/DEAD Fixable Aqua Dead Cell Stain Kit (ThermoFisher Scientific L34957) on ice for 30 minutes. After a wash with PBS, 2×10⁵ cells were aliquoted per well in 96-well round bottom plates and incubated with 50 μl of culture supernatant on ice for 30 mins. […] Following this secondary incubation, the cells were again washed twice with ice-cold FACS buffer and resuspended in a final volume of 200 μl of FACS buffer. Analysis was performed on a FACS Canto system (BD Biosciences), with sort gates drawn to exclude dead (Aqua-positive) cells. […] The screen was repeated twice, and the numbers reported here represent the ratio of mean fluorescence level in transfected cells over parental cells.

cynomolgus (cyno) MS4A6A [2] = biological target: T3, cynomolgus (cyno) MS4A6A; assay: flow cytometry, hybridoma supernatant, HEK293 transfected with cyno MS4A6A over parental HEK293; Screen 2
Method: as §1

Row | Binder | binding result (MS4A6A ECL1 peptide) | Kd (MS4A6A ECL2 peptide) | koff (MS4A6A ECL2 peptide) | kon (MS4A6A ECL2 peptide) | ratio of APC MFI on MS4A6A+/HEK parental cells (cynomolgus (cyno) MS4A6A [1]) | ratio of APC MFI on MS4A6A+/HEK parental cells (cynomolgus (cyno) MS4A6A [2])
1 | 6A-12 (antibody, V domains shown, Mouse hybridoma antibody, tested as hybridoma supernatant (mouse IgG, detected or captured via anti-mouse IgG Fc); also called anti-MS4A6A antibody 6A-12) VH: EVQLQQSGPELVKPGASVKISCKASGYSFTGYYMHWVKQSPEDSLEWIGAINPSTGGSTYSQKFKDKATLTVDKSSSTAYMQLKSLTSEESAVYYCTRFDGYGYWGQGTLVTVSS VL: DIVMTQAAFSNPVTLGTSASISCRSSKSLLHSNGITYLYWYLQKPGQSLQLLIYQMSNLASGVPDRFSGSGSGTDFTLRISRVEAEDVGVYYCAQNLELPWTFGGGTKLEIK | no binding | 160 nM and 130 nM | 0.00081 s⁻¹ and 0.00067 s⁻¹ | 5200 M⁻¹ s⁻¹ and 5100 M⁻¹ s⁻¹ | 40.3 ratio | 45.5 ratio
2 | 6A-15 (antibody, V domains shown, Mouse hybridoma antibody, tested as hybridoma supernatant (mouse IgG, detected or captured via anti-mouse IgG Fc); also called anti-MS4A6A antibody 6A-15) VH: EVMLVESGGGLVKPGGSLKLSCAASGFTFSSHAMSWVRQTPEKRLEWVATISSGDSYTYYPDSVKGRFTISRDNAKNTLYLQMTSLRSEDTAMYYCIRHIYYGNLYYAMDYWGQGTSVTVSS VL: DVLMTQTPLSLPVSLGDQASISCRSSQSIIHNNGNTYLEWYLQKPGQSPKLLIYKVSNRFSGVPDRFSGSGSGTYFTLKISRVEADDLGVYYCFQGSHVPWTFGGGTKLEIK | no binding | 76 nM and 86 nM | 0.00038 s⁻¹ and 0.00043 s⁻¹ | 5000 M⁻¹ s⁻¹ | 3.8 ratio | 8.4 ratio
3 | 6A-18 (antibody, V domains shown, Mouse hybridoma antibody, tested as hybridoma supernatant (mouse IgG, detected or captured via anti-mouse IgG Fc); also called anti-MS4A6A antibody 6A-18) VH: EVQLQQSGPELVKPGASVKISCKASGYSFTGYYIHWVKESHVKSLEWIGRINPKNGVTSYNQNFKDKASLTVDRSSSTAYMDLYSLTSEDSAVYYCASTFITGWGQGTSLTVSS VL: DVLLTQAPLSLPVSLGDQASISCRSSQTIVHSDGNTYLEWYLQKPGQSPKLLIYTVSNRFSGVPDRFSGSGSGTDFTLKISRVEAEDLGVYYCFQGSHVPWTFGGGTKLEIK | no binding | 180 nM | 0.00049 s⁻¹ | 2700 M⁻¹ s⁻¹ | 4.1 ratio | 20.3 ratio
4 | 6A-9 (antibody, V domains shown, Mouse hybridoma antibody, tested as hybridoma supernatant (mouse IgG, detected or captured via anti-mouse IgG Fc); also called anti-MS4A6A antibody 6A-9) VH: EVQLQQSGPELVKPGASVKISCKASGYSFTGYYIHWVKESHVKSLEWIGRINPKNGVTSYNQNFKDKASLTVDRSSSTAYMDLYSLTSEDSAVYYCASTFITGWGQGTSLTVSS VL: DVLLTQAPLSLPVSLGDQASISCRSSQTIVHSDGNTYLEWYLQKPGQSPKLLIYTVSNRFSGVPDRFSGSGSGTDFTLKISRVEAEDLGVYYCFQGSHVPWTFGGGTKLEIK | no binding | 290 nM | 0.0011 s⁻¹ | 3900 M⁻¹ s⁻¹ | 12.6 ratio | 84 ratio
5 | 6A-11 (antibody, V domains shown, Mouse hybridoma antibody, tested as hybridoma supernatant (mouse IgG, detected or captured via anti-mouse IgG Fc); also called anti-MS4A6A antibody 6A-11) VH: EVQLQQSGPDLVKPGASVKISCKASGYSFTGYYIHWVKQSHIKSLEWIGRINPNNGATNYNQIFKDKATLTVDRSSSTAYMDLHSLTSEDSAVYYCVSTFITGWGQGTTLTVSS VL: DVLLTQTPLSLPVSLGDQASISCRSSQTIVHSDGNTYLEWYLQRPGLSPKLLIYKVSIRFSGVPDRFSGSGSGTDFTLKISRVEAEDLGVYYCFQGSHVPWTFGGGTKLEIK | no binding | – | – | – | 8.6 ratio | 61.7 ratio
6 | 6A-16 (antibody, V domains shown, Mouse hybridoma antibody, tested as hybridoma supernatant (mouse IgG, detected or captured via anti-mouse IgG Fc); also called anti-MS4A6A antibody 6A-16) VH: EVQLQQSGPELVKPGASVKISCKASGYSFTGYYIHWVKESHVKSLEWIGRINPKNGVTSYNQNFKDKASLTVDRSSSTAYMDLYSLTSEDSAVYYCASTFITGWGQGTTVTVSS VL: DVLLTQAPLSLPVSLGDQASISCRSSQTIVHSDGNTYLEWYLQKPGQSPKLLIYTVSNRFSGVPDRFSGSGSGTDFTLKISRVEAEDLGVYYCFQGSHVPWTFGGGTKLEIK | no binding | 180 nM and 150 nM | 0.00097 s⁻¹ and 0.00049 s⁻¹ | 5500 M⁻¹ s⁻¹ and 3400 M⁻¹ s⁻¹ | 14.4 ratio | 28.5 ratio
7 | 6A-22 (antibody, V domains shown, Mouse hybridoma antibody, tested as hybridoma supernatant (mouse IgG, detected or captured via anti-mouse IgG Fc); also called anti-MS4A6A antibody 6A-22) VH: EVNLEESGGDLVQPGGSMKLSCLASGFTFSDAWMDWVRQSPEKGLEWVAEIKNKANNYVTFYAASVKGRFTISRDDSKSSVYLQMNNLRPEDTGIYFCTRGSVYGNWFPYWGQGTLVTVSA VL: DIVMSQSPSSLAVSAGEKVTMTCKSSQSLFNSRTRKNYLTWYQQKPGQSPKVLIYWASTRESGVPDRFTGSGSGTDFSLTISSVQADDLAVYYCKQSYNLLTFGAGTRLELK | no binding | 390 nM and 250 nM | 0.0023 s⁻¹ and 0.0021 s⁻¹ | 6000 M⁻¹ s⁻¹ and 8400 M⁻¹ s⁻¹ | 175 ratio | 68.8 ratio
8 | 6A-21 (antibody, V domains shown, Mouse hybridoma antibody, tested as hybridoma supernatant (mouse IgG, detected or captured via anti-mouse IgG Fc); also called anti-MS4A6A antibody 6A-21) VH: EVQLQQSGPELVKPGASVKMSCKASGYTFTDYFMKWVKQSHGKSLEWIGDINPKNGDTFYNQKFKGKATLTVDKSSSTAYMQLNSLTSEDSAVYYCARPGYFDVWGAGTTVTVSS VL: not shown | no binding | 200 nM | 0.001 s⁻¹ | 5300 M⁻¹ s⁻¹ | 71.8 ratio | 136 ratio
9 | 6A-14 (antibody, V domains shown, Mouse hybridoma antibody, tested as hybridoma supernatant (mouse IgG, detected or captured via anti-mouse IgG Fc); also called anti-MS4A6A antibody 6A-14) VH: QVQLKQSGPGLVQPSQSLSITCTVSGFSLTTYGVHWVRQSPGKGLEWLGVIWSGGSTDYNAAFISRLNISKDNSKSQVFFKMNSLQANDTAIYYCARGYGSSYEYFDVWGAGTTVTVSS VL: DIVLTQSPASLAVSLGQRATISCRASESVDSYGNSFMHWYQQKPGQPPKLLIYRASNLESGIPARFSGSGSRTDFTLTINPVEADDVATYYCQQSNEDPLTFGAGTKLELK | no binding | 170 nM and 150 nM | 0.00096 s⁻¹ and 0.001 s⁻¹ | 5700 M⁻¹ s⁻¹ and 6900 M⁻¹ s⁻¹ | 20.2 ratio | 59.1 ratio
10 | 6A-13 (antibody, V domains shown, Mouse hybridoma antibody, tested as hybridoma supernatant (mouse IgG, detected or captured via anti-mouse IgG Fc); also called anti-MS4A6A antibody 6A-13) VH: EVKVVESGGGLVQPGGSLRLSCATAGFTFTDYYMTWVRQPPGKALEWLGFIRNKANGYTTEYNSSVKGRFTISRDNSRSILYLQMNTLRAEDSATYYCARSMDYWGQGTSVTVSS VL: NIVMTQSPNSMSMSVGERVTLSCKASENVGTYVSWYQQKPDQSPKLLIYGASNRYTGVPDRFTGGGSATDFTLTISSVQAEDLADYHCGQTYSFPYTFGGGTKLEIK | no binding | 140 nM and 180 nM | 0.00066 s⁻¹ and 0.00092 s⁻¹ | 4800 M⁻¹ s⁻¹ and 5300 M⁻¹ s⁻¹ | 24.8 ratio | 30.3 ratio
